This note sets out measurements from publication PMC10811509, “APP‐C31: An Intracellular Promoter of Both Metal‐Free and Metal‐Bound Amyloid‐β40 Aggregation and Toxicity in Alzheimer's Disease” (Advanced Science, 2023).

What all share (conditions): both partners purified
The target of experiment [1] is T1, amyloid‐β40 (Aβ40).
T1 construct: Amyloid-beta 40, cut from amyloid precursor protein (APP) by beta- and gamma-secretases; numbers count on: the Aβ peptide (Asp1 to Val40); Unlabelled peptide; Metal-treated samples (CuCl2, ZnCl2) are told apart by the assay; also called metal-free Aβ40; Cu(II)–Aβ40 and Zn(II)–Aβ40 when treated with CuCl2 or ZnCl2; source: bought: Peptide Institute (HPLC-purified) or Anaspec
In words: ITC; APP-C31 600 µM in the syringe, Aβ40 30 µM in the cell; 20 mM HEPES, pH 7.4; 10 °C; one set of sites model.

For experiment [2], the target named is T2, uniformly ^15N‐labeled Aβ40 (uniformly 15N-labeled).
T2 construct: Amyloid-beta 40, cut from amyloid precursor protein (APP); numbers count on: the Aβ peptide (Asp1 to Val40); also called ^15N‐labeled Aβ40 monomer; source: bought: rPeptide Inc
In words: NMR titration; 2D 1H–15N HSQC (700 MHz); 15N-labeled Aβ40 40 µM, CuCl2 20 µM, APP-C31 200 µM; 20 mM HEPES, pH 7.4; 10 °C.

For experiment [3], the target named is T1, amyloid‐β40 (Aβ40). Put plainly: native MS; ESI–MS; APP-C31 100 µM incubated with Aβ40 100 µM, 20 mM ammonium acetate, pH 7.3, 37 °C, 2 h, no agitation; diluted tenfold before injection; no metal.

T1 sequence (peptide, as listed by the source): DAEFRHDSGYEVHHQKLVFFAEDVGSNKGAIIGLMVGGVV
T2 sequence (peptide, as listed by the source): as above

B1: APP‐C31 (APP_(665–695)) (peptide)
peptide: AAVTPEERHLSKMQQNGYENPTYKFFEQMQN
notes: C-terminal 31 residues of amyloid precursor protein (APP), produced by caspase cleavage; residues 665-695; source: bought: AnaSpec
The stoichiometry N is the number of molecules, sites or subunits per partner or assembly. As to B1, in experiment [1], the Kd came to 150 ± 11.4 µM and the dH is -1.5 ± 0.3 kcal/mol. The binding result in experiment [2] is on record as “binds”. In addition, the “stoichiometry N” value in experiment [3] was 1.
